Holding throughout (experiment): G' assay (10 uM PL peptide), results of TABLE 7 and TABLE 12
What all share (format): binding

For assay [1], the target named is T1, PDZ protein (GST-PDZ fusion) (Homo sapiens, UniProt Q12923).
T1 construct: made in house; host or cells: E. coli (DH5alpha, BL21 or JM109)
Particulars: PDZ PTPL-1, PDZ Domain 4. An excerpt:
(§1) Each page of TABLE 7 and 12 includes seven columns. The columns in each table are numbered from left to right such that the left-most column in each table is column 1 and the right-most column in each table is column 7. Thus, the first column in each table is labeled “AVC ID”; this column simply lists an internal reference number used to refer to the carboxyl-terminal amino acids of the PL proteins listed in the second column. […] All PL peptides were biotinylated at the amino-terminus and the sequences of these PL peptides are presented in TABLE 8 (see end of specification).
(§2) This column provides the gene name for the PDZ portion of the GST-PDZ fusion that interacts with the PDZ-ligand to the left. For PDZ domain-containing proteins with multiple domains, the domain number is listed to the right of the PDZ (i.e., in column 5 labeled “PDZ Domain”), and indicates the PDZ domain number when numbered from the amino-terminus to the carboxy-terminus.
(§3) The third column labeled “Peptide Optimal Concentration” in the tables is a number reflective of the binding interaction between the PL protein and PDZ protein. […] The column labeled “Protein Optimal Concentration” refers to the protein concentration used to assay PL interaction (in ug/ml); a ‘0’ is indicative of 5 ug/ml protein concentration; any other value represents the concentration (in ug/ml) used to determine the dissociation constant for a given interaction.
(§4) Finally, the seventh column labeled “Classification” is another measure of the level of binding. In particular, it provides an absorbance value at 450 nm which indicates the amount of PL peptide bound to the PDZ protein. The following numerical values have the following meanings: ‘1’—A450 nm 0-1; ‘2’—A450 nm 1-2; ‘3’—A450 nm 2-3; ‘4’—A450 nm 3-4; ‘5’—A450 nm of 4 more than 2× repeated; ‘0’—A450 nm 0, i.e., not found to interact. Thus, higher numbers indicate stronger interactions.
(§5) For convenience, the assay conditions described in this section are referred to as the “G′ assay” and the “G″ assay,” with the specific conditions described in the preceding section on G assays being referred to as the “G^0 assay.” The “G′ assay” is identical to the “G^0 assay” except at step (2) the peptide concentration is 10 uM instead of 20 uM.

For assay [2], the target named is T2, PDZ protein (GST-PDZ fusion) (Homo sapiens, UniProt Q02410).
T2 construct: made in house; host or cells: E. coli (DH5alpha, BL21 or JM109)
T2 sequence (Q02410 1-837): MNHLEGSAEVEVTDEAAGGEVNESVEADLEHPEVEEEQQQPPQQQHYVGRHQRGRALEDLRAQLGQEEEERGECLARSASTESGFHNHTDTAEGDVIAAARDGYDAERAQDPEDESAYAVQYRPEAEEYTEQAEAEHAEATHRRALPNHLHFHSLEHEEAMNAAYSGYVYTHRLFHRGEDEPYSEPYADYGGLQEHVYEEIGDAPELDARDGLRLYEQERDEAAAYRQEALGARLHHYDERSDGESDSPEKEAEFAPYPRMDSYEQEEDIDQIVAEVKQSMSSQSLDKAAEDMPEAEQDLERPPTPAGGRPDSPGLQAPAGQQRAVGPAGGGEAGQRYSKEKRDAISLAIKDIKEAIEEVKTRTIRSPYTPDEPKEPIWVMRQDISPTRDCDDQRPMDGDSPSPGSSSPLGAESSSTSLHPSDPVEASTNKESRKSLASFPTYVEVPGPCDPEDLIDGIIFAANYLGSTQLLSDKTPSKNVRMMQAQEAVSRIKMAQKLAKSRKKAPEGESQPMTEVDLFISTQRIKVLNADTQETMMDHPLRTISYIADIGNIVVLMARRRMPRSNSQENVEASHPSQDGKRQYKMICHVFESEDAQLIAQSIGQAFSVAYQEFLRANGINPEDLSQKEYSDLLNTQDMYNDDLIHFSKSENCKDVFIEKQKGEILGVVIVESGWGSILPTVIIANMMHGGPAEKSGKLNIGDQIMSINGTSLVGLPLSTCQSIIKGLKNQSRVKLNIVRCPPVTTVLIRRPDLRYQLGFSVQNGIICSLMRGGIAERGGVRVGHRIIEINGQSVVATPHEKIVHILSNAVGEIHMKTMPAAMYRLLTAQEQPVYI
Description: as §1, §2, §3, §4, §5

Assay [3] concerns the target T3, PDZ protein (GST-PDZ fusion) (Homo sapiens, UniProt Q6P0Q8).
T3 construct: made in house; host or cells: E. coli (DH5alpha, BL21 or JM109)
Description: as §1, §2, §3, §4, §5

Assay [4] deals with PDZ protein (GST-PDZ fusion).
Description: as §1, §2, §3, §4, §5

Assay [5] has as its target T4, PDZ protein (GST-PDZ fusion) (Homo sapiens, UniProt O15018).
T4 construct: made in house; host or cells: E. coli (DH5alpha, BL21 or JM109)
The note with it: PDZ AIPC, PDZ Domain 1.
Description: as §1, §2, §3, §4, §5

The target of assay [6] is T5, PDZ protein (GST-PDZ fusion) (Homo sapiens, UniProt O75970).
T5 construct: made in house; host or cells: E. coli (DH5alpha, BL21 or JM109)
Description: as §1, §2, §3, §4, §5

Assay [7] deals with T6, PDZ protein (GST-PDZ fusion) (Homo sapiens, UniProt Q12959).
T6 construct: made in house; host or cells: E. coli (DH5alpha, BL21 or JM109)
Particulars: PDZ DLG1, PDZ Domain 1, 2.
Description: as §1, §2, §3, §4, §5

Assay [8] addresses T7, PDZ protein (GST-PDZ fusion) (Homo sapiens, UniProt Q5TCQ9).
T7 construct: made in house; host or cells: E. coli (DH5alpha, BL21 or JM109)
T7 sequence (Q5TCQ9 1-1481): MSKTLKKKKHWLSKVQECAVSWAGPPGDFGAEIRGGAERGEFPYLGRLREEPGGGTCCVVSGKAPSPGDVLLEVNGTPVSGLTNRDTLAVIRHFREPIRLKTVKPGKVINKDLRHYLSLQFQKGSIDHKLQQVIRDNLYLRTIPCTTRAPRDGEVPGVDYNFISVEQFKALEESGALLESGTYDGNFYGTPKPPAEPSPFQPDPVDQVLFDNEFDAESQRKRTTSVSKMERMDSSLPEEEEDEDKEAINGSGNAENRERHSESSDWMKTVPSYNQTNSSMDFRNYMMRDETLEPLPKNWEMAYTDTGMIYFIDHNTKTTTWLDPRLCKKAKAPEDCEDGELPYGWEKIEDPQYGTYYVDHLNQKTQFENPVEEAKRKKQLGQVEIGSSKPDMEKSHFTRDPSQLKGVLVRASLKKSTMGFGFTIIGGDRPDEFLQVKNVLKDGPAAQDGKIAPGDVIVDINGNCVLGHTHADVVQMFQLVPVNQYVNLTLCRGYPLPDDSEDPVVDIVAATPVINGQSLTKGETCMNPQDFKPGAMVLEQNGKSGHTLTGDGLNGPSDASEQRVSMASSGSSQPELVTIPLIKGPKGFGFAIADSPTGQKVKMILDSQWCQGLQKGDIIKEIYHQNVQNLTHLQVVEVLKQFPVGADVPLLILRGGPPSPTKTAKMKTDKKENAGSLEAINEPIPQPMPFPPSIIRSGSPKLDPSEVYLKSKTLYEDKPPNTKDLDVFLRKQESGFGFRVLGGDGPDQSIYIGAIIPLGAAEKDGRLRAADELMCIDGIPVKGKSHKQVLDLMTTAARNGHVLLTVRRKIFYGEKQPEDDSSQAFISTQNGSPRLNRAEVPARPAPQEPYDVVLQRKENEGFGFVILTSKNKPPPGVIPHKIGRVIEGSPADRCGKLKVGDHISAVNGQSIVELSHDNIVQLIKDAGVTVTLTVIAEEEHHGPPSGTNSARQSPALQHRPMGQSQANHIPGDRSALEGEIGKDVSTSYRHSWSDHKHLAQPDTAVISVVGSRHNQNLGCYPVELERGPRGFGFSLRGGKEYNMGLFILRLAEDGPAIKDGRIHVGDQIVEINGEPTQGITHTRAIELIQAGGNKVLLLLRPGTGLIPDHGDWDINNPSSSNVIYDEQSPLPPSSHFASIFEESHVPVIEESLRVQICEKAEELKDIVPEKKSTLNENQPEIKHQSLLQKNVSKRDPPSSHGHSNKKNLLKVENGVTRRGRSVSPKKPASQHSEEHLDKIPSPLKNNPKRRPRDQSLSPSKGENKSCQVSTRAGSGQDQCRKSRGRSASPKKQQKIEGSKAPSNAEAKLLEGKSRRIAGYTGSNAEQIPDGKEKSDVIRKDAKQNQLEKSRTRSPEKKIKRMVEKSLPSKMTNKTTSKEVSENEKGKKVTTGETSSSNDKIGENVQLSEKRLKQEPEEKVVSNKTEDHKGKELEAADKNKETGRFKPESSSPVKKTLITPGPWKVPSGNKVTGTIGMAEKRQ
The note with it: PDZ KIAA1634, PDZ Domain 1.
Description: as §1, §2, §3, §4, §5

Assay [9] deals with T8, PDZ protein (GST-PDZ fusion) (Homo sapiens, UniProt Q8NI35).
T8 construct: made in house; host or cells: E. coli (DH5alpha, BL21 or JM109)
The note with it: PDZ INADL, PDZ Domain 8.
Description: as §1, §2, §3, §4, §5

Where [10] appears, read: PDZ KIAA807, PDZ Domain not given.

Ends that are not written are not given here. * marks the point of attachment. Biotin = O=C1N[C@H]2[C@H](CS[C@H]2CCCCC(=O)*)N1

T1 sequence (Q12923 whole entry, the tested form may be a part): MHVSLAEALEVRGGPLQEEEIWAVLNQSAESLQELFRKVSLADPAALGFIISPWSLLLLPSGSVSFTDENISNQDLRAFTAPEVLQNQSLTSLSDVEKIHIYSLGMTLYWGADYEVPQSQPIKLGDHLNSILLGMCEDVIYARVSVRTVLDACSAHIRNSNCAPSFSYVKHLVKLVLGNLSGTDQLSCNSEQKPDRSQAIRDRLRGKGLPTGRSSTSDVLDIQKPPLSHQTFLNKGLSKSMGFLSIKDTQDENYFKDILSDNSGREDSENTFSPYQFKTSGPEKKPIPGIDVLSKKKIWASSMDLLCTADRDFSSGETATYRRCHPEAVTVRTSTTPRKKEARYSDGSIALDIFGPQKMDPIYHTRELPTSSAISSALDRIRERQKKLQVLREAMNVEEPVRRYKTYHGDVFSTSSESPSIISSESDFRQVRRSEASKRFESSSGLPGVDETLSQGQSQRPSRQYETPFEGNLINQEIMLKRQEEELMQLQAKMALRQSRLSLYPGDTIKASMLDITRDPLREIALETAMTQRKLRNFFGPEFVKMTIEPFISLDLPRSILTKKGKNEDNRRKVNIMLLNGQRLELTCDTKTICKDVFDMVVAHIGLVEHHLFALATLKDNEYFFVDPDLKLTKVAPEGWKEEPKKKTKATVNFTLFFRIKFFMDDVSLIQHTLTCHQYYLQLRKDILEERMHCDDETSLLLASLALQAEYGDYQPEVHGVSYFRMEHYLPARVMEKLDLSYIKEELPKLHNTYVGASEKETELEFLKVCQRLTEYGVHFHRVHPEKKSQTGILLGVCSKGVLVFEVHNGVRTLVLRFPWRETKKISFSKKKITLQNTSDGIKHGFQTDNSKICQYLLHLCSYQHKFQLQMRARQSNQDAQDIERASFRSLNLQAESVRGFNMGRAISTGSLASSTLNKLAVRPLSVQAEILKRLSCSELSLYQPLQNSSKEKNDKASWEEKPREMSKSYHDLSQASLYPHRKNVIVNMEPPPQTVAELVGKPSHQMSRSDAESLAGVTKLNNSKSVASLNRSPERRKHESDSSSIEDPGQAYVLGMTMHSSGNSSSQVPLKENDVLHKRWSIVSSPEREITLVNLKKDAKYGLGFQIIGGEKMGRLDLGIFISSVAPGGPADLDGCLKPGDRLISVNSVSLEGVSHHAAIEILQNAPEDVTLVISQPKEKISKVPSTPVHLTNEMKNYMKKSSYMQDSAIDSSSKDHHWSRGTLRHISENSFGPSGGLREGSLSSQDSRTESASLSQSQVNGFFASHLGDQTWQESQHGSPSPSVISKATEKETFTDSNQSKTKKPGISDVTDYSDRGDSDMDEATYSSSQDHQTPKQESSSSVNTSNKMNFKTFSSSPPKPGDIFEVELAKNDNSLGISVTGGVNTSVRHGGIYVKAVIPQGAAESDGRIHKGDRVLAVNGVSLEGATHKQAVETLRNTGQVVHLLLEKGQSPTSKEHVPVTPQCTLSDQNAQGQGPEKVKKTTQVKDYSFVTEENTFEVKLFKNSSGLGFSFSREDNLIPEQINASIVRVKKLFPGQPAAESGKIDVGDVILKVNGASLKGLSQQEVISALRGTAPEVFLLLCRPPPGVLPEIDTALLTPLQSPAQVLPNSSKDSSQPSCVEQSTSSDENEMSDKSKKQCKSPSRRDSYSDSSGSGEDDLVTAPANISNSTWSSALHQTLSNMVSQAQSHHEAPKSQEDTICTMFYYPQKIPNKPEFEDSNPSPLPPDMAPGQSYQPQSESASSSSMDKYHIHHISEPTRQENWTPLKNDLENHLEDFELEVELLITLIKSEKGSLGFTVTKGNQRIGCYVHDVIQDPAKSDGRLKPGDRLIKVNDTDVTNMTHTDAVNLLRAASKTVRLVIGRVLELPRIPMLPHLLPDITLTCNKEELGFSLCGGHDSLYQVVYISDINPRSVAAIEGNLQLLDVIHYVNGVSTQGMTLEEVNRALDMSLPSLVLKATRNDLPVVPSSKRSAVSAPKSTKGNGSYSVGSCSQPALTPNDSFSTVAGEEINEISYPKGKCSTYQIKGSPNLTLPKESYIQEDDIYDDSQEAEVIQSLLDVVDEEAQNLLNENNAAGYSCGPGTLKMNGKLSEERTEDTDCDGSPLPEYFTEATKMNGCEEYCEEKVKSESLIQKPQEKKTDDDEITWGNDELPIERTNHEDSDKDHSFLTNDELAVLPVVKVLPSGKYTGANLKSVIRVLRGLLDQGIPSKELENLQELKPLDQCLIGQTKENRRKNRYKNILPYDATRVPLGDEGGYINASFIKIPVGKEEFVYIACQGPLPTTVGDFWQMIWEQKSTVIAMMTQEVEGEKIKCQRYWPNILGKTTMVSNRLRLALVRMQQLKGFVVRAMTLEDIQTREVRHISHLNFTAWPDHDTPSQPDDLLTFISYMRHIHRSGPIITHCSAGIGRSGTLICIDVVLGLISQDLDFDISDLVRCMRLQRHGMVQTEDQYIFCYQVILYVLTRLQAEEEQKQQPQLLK
T3 sequence (Q6P0Q8 whole entry, the tested form may be a part): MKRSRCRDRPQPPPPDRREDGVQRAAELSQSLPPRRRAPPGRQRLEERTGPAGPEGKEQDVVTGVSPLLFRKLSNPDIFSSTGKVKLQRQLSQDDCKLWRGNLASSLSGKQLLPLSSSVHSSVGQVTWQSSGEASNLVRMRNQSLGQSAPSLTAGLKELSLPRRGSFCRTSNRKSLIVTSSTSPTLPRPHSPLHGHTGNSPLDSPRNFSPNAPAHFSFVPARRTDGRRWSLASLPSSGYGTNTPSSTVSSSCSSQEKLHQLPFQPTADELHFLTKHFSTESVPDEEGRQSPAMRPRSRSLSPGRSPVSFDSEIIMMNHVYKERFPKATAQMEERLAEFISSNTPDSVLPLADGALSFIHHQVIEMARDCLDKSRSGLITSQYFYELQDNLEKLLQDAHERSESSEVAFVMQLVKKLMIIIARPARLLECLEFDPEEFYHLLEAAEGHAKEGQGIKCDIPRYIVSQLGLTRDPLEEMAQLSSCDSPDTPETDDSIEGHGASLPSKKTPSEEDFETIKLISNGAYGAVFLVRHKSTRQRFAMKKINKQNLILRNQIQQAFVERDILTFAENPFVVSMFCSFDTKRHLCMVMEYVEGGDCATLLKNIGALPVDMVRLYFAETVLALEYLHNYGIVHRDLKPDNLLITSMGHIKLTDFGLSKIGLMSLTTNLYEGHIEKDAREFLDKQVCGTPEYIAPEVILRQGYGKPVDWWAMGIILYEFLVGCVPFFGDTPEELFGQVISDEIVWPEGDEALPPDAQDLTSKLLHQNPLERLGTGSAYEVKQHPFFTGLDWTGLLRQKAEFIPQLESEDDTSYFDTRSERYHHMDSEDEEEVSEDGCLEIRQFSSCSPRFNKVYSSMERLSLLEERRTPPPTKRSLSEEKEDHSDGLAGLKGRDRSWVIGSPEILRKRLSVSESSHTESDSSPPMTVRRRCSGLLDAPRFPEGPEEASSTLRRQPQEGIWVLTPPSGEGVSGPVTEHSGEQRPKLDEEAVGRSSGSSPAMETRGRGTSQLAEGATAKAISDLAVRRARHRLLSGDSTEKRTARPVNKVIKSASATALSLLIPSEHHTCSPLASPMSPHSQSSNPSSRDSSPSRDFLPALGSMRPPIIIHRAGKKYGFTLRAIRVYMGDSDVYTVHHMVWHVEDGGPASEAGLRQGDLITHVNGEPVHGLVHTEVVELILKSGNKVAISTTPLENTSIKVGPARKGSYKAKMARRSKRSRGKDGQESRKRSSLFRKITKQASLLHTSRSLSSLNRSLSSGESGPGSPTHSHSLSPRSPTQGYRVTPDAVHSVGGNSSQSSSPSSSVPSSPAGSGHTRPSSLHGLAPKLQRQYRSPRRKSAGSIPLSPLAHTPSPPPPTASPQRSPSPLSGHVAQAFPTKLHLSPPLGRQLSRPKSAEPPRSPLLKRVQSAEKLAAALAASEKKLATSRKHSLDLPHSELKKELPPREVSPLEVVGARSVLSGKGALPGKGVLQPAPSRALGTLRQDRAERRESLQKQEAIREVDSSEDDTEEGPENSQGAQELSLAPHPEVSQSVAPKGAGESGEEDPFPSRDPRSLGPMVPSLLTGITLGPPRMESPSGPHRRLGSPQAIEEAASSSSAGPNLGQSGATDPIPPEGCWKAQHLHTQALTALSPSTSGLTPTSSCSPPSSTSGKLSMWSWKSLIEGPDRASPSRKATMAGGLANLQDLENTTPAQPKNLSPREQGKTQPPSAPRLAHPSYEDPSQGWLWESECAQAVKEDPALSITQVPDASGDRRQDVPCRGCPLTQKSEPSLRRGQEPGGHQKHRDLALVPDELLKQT

Turning to “C5AR_HUMAN (Biotin-ESKSFTRSTVDTMAQKTQAV)”, the Classification in assay [1] is 1 (A450 nm 0-1).

On to “LGYSIPSRSGASGLDKRDYV (Biotin-LGYSIPSRSGASGLDKRDYV) [claudin 9]”, for which the Classification in assay [2] (PDZ Mint 1, PDZ Domain 1, 2) is reported as 1 (A450 nm 0-1).

For “KAGYRAPRSYPKSNSSKEYV (Biotin-KAGYRAPRSYPKSNSSKEYV) [claudin 7]”, the Classification in assay [2] (PDZ Mint 1, PDZ Domain 1, 2) is reported as 4 (A450 nm 3-4).

As for “SPQPDSTDNDDYDDISAA (Biotin-SPQPDSTDNDDYDDISAA) [CD6]”, the Classification is listed as 1 (A450 nm 0-1) in assay [3] (PDZ KIAA0807(S), PDZ Domain 1) and 1 (A450 nm 0-1) in assay [3] (setting [10]).

“KPQIAALKEETEEEVQDTRL (Biotin-KPQIAALKEETEEEVQDTRL)”: the Classification is recorded as 2 (A450 nm 1-2) in assay [3] (PDZ KIAA0807(S), PDZ Domain 1); 1 (A450 nm 0-1) in [3] (setting [10]); 1 (A450 nm 0-1) in [4] (PDZ SHANK, PDZ Domain 1).

Consider “VISKATPALPTVSISSSAEV (Biotin-VISKATPALPTVSISSSAEV) [Clasp-1]”, for which the Classification is given as 1 (A450 nm 0-1) in assay [5]; 1 (A450 nm 0-1) in assay [2] (PDZ Mint 1, PDZ Domain 1, 2); 1 (A450 nm 0-1) in [3] (PDZ KIAA0807(S), PDZ Domain 1); 1 (A450 nm 0-1) in [3] (setting [10]).

Take “TALRIKKTLAKMVESQDVKI (Biotin-TALRIKKTLAKMVESQDVKI) [bone morphogenetic protein receptor]”: the Classification is given as 1 (A450 nm 0-1) in assay [6] (PDZ MUPP-1, PDZ Domain 3); 1 (A450 nm 0-1) in assay [6] (PDZ MUPP-1, PDZ Domain 7); 1 (A450 nm 0-1) in [6] (PDZ MUPP-1, PDZ Domain 9); 1 (A450 nm 0-1) in assay [3] (PDZ KIAA0807(S), PDZ Domain 1).

For the substance “PVYIVQEMPPQSPANIYYKV (Biotin-PVYIVQEMPPQSPANIYYKV) [ephrin B1]”, the Classification in assay [6] (PDZ MUPP-1, PDZ Domain 3) is 1 (A450 nm 0-1); in assay [6] (PDZ MUPP-1, PDZ Domain 7), 1 (A450 nm 0-1); in assay [6] (PDZ MUPP-1, PDZ Domain 9), 1 (A450 nm 0-1); in assay [1], 2 (A450 nm 1-2); in assay [3] (PDZ KIAA0807(S), PDZ Domain 1), 1 (A450 nm 0-1); in assay [3] (PDZ KIAA807 (domain not given)) it was 1 (A450 nm 0-1).

Take “GGEDFKTTNPSKQFDKNAYV (Biotin-GGEDFKTTNPSKQFDKNAYV) [claudin 10]”: the Classification in assay [7] and in assay [8] was 1 (A450 nm 0-1) each time.

Consider “PGQPPKVKSEFNSYSLTGYV (Biotin-PGQPPKVKSEFNSYSLTGYV) [claudin 2]”, for which the Classification in [2] (PDZ Mint 1, PDZ Domain 1, 2) was 2 (A450 nm 1-2); in assay [8], 1 (A450 nm 0-1); in assay [3] (PDZ KIAA807), 1 (A450 nm 0-1); in [4] (PDZ BAI-1, PDZ Domain 3) it was 1 (A450 nm 0-1).

Regarding “IVFIHSFLSAKVTRLGLLA (Biotin-IVFIIHSFLSAKVTRLGLLA) [alpha-1-syntrophin]”, the Classification in [3] (PDZ KIAA0807(S), PDZ Domain 1) is given as 1 (A450 nm 0-1).

As for “DGGARTEDEVQSYPSKHDYV (Biotin-DGGARTEDEVQSYPSKHDYV) [claudin 18]”, in [2] (PDZ Mint 1, PDZ Domain 1, 2), the Classification is 1 (A450 nm 0-1).

Take “PRLKRMQQFEDLEDEIPQFV (Biotin-PRLKRMQQFEDLEDEIPQFV) [RhoGAP 1 (PTPL1-associated)]”: the Classification in assay [1] was 2 (A450 nm 1-2).

For “ENLELPVNPSSVVSERISSV (Biotin-ENLELPVNPSSVVSERISSV) [serotonin receptor 5-HT-2C]”, the Classification in [6] (PDZ MUPP-1, PDZ Domain 10) is recorded as 1 (A450 nm 0-1); in assay [9] it was 1 (A450 nm 0-1).

Turning to “SYPTPRPYPKPAPSSGKDYV (Biotin-SYPTPRPYPKPAPSSGKDYV) [claudin 1]”, the Classification in assay [2] (PDZ Mint 1, PDZ Domain 2) was 1 (A450 nm 0-1); in [9], 1 (A450 nm 0-1).

“RDSFHRSSFRKAETQLSQGS (Biotin-RDSFHRSSFRKAETQLSQGS) [Clasp-5]”: the Classification in [3] (PDZ KIAA807) was 1 (A450 nm 0-1); in [3] (PDZ KIAA0807(S), PDZ Domain 1), 1 (A450 nm 0-1); in assay [4] (PDZ BAI-1, PDZ Domain 2), 1 (A450 nm 0-1); in assay [4] (PDZ SHANK, PDZ Domain 1), 1 (A450 nm 0-1).
